The text below walks through data of PMC11018632, “The CB1 receptor interacts with cereblon and drives cereblon deficiency-associated memory shortfalls” (EMBO Molecular Medicine, 2024).

Assay [1] deals with T1, 5-IAF-labelled 6xHis-tagged human CB1R carboxy-terminal domain (hCB1R-CTD, amino acids 400-472) (human, UniProt P21554 400-472, labelled with 5-(iodoacetamido)fluorescein (5-IAF)).
T1 chain: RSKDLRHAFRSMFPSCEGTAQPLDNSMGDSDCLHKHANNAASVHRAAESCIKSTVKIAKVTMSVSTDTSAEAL
In words: FP.

Assay [2] addresses T2, 6xHis-tagged human cereblon (hCRBN), recombinant (human, UniProt Q96SW2 1-442).
T2 construct: cereblon/CRBN, human; human CRBN cDNA inserted in the pBH4 vector; the introduction speaks of the 442 amino-acid protein; No tag cleavage is described; also called His6-tagged CRBN; unlabelled human CRBN
Kind of assay: fluorescence polarisation; saturation binding; constant 100 nM 5-IAF-hCB1R-CTD and increasing amounts of hCRBN (~0-100 µM); fitted to a one-site equation for Kd. As to conditions: both partners purified. Background: Polarisation of emitted light reports the rotation of a fluorescent probe.

B1: 6xHis-tagged human cereblon (hCRBN), recombinant (natural protein)
chain: MAGEGDQQDAAHNMGNHLPLLPAESEEEDEMEVEDQDSKEAKKPNIINFDTSLPTSHTYLGADMEEFHGRTLHDDDSCQVIPVLPQVMMILIPGQTLPLQLFHPQEVSMVRNLIQKDRTFAVLAYSNVQEREAQFGTTAEIYAYREEQDFGIEIVKVKAIGRQRFKVLELRTQSDGIQQAKVQILPECVLPSTMSAVQLESLNKCQIFPSKPVSREDQCSYKWWQKYQKRKFHCANLTSWPRWLYSLYDAETLMDRIKKQLREWDENLKDDSLPSNPIDFSYRVAACLPIDDVLRIQLLKIGSAIQRLRCELDIMNKCTSLCCKQCQETEITTKNEIFSLSLCGPMAAYVNPHGYVHETLTVYKACNLNLIGRPSTEHSWFPGYAWTVAQCKICASHIGWKFTATKKDMSPQKFWGLTRSALLPTIPDTEDEISPDKVILCL
As for B1, the affinity in assay [1], expressed as Kd, was 2810 nM.

B2: 5-IAF-labelled 6xHis-tagged human CB1R carboxy-terminal domain (hCB1R-CTD, amino acids 400-472) (domain or fragment, UniProt P21554 400-472, looked up)
chain: RSKDLRHAFRSMFPSCEGTAQPLDNSMGDSDCLHKHANNAASVHRAAESCIKSTVKIAKVTMSVSTDTSAEAL
modifications: labelled with 5-(iodoacetamido)fluorescein (5-IAF)
notes: type-1 cannabinoid receptor (CB1R), human, carboxy-terminal domain, amino acids 400-472; The construct was made in earlier work (Costas-Insua et al, 2021); The results section gives aa 408-472 for the CTD of the earlier proteomic screen; also called 5-IAF-hCB1R-CTD; His6-tagged CB1R-CTD
B2: in assay [2], the binding result is given as “binds”.

In general, Kd refers to the free concentration of one partner at which half of the binding sites on the other are occupied at equilibrium, for simple one-to-one binding. High values mean lower affinity, low ones higher affinity.
